This test concerns the target T1, factor XII (FXII/FXIIa) in rat plasma (rat) (UniProt D3ZTE0).
T1 sequence (looked up): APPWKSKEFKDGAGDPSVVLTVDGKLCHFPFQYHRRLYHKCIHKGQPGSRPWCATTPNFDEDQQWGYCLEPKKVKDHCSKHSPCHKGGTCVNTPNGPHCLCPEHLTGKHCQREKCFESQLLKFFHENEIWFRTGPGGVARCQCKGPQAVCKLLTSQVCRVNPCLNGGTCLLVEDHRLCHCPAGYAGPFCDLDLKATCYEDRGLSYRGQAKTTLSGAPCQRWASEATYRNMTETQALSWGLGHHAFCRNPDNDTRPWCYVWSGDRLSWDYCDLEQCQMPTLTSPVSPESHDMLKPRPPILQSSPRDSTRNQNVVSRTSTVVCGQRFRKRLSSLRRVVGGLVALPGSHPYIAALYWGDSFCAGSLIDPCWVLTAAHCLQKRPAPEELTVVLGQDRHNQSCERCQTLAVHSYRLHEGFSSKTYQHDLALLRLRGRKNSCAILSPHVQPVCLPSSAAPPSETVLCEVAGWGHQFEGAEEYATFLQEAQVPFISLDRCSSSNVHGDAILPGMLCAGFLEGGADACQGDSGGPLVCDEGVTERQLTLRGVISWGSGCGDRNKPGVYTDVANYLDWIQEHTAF
Nature of the test: cell-based or functional assay.

B1: Berinert P (C1 esterase inhibitor) (protein, human, UniProt P05155 23-500, looked up)
chain: NPNATSSSSQDPESLQDRGEGKVATTVISKMLFVEPILEVSSLPTTNSTTNSATKITANTTDEPTTQPTTEPTTQPTIQPTQPTTQLPTDSPTQPTTGSFCPGPVTLCSDLESHSTEAVLGDALVDFSLKLYHAFSAMKKVETNMAFSPFSIASLLTQVLLGAGENTKTNLESILSYPKDFTCVHQALKGFTTKGVTSVSQIFHSPDLAIRDTFVNASRTLYSSSPRVLSNNSDANLELINTWVAKNTNNKISRLLDSLPSDTRLVLLNAIYLSAKWKTTFDPKKTRMEPFHFKNSVIKVPMMNSKKYPVAHFIDQTLKAKVGQLQLSHNLSLVILVPQNLKHRLEDMEQALSPSVFKAIMEKLEMSKFQPTLLTLPRIKVTTSQDMLSIMEKLEFFDFSYDLNLCGLTEDPDLQVSAMQHQTVLELTETGVEAAAASAISVARTLLVFEVQQPFLFVLWDQQHKFPVFMGRVYDPRA
Take B1: the FXII activity [% of the norm] in rat plasma spiked with 0.98 U/mL Berinert P (% of the norm) came to 215, the FXII activity [% of the norm] in rat plasma spiked with 2.4 U/mL Berinert P (% of the norm) is 94, the FXII activity [% of the norm] in rat plasma spiked with 4.5 U/mL Berinert P (% of the norm) is 85 and the FXII activity [% of the norm] in rat plasma spiked with 9.92 U/mL Berinert P (% of the norm) came to 55. This molecule showed an FXII activity [% of the norm] in rat plasma spiked with 16.7 U/mL Berinert P (% of the norm) of 25.

The values are drawn from US20100279923A1.
